{"source": "paper PMC13049513", "about": "“Assembly of a homohexameric minichromosome maintenance complex is dependent on ATP and DNA” (The Journal of Biological Chemistry, 2025)", "key": {"[1]": {"target": "MacMCM D311K (minus-SB mutant)", "assay": "analytical size-exclusion chromatography (SEC), self-association", "conditions": "Protein samples (10 μM); Superdex S200 Increase 10/300 GL; UV absorbance at 280 nm; parent: est. 13.1; read off a plot"}, "[2]": {"target": "MacMCM^E391Q, Walker B mutant of MacMCM (Mancarchaeum acidiphilum)", "assay": "SEC; analytical SEC, Superose 6 Increase 10/300 GL, 200 mM NaCl, 20 mM Tris pH 8.0, 5% glycerol; protein 10 uM with equimolar fluorescein-polyT50 ssDNA; 1 mM ATP and 10 mM MgCl2 in the buffer"}, "[3]": {"target": "MacMCM^ΔWHD.E391Q, MacMCM lacking the C-terminal winged-helix domain with the Walker B mutation E391Q (Mancarchaeum acidiphilum)", "assay": "SEC; analytical SEC, Superose 6 Increase 10/300 GL, 200 mM NaCl, 20 mM Tris pH 8.0, 5% glycerol; protein 10 uM with equimolar fluorescein-polyT50 ssDNA; 1 mM ATP and 10 mM MgCl2 in the buffer"}, "[4]": {"target": "MacMCM^ΔWHD.E391Q, MacMCM lacking the C-terminal winged-helix domain with the Walker B mutation E391Q (Mancarchaeum acidiphilum)", "assay": "crystal structure; MacMCM^ΔWHD.E391Q crystallised with 10 mM ATP and 10 mM MgCl2, 20 °C; ADP and phosphate in the active sites; 2.59 Å"}, "MacMCM^ΔWHD [5]": {"target": "T1, MacMCM^ΔWHD (Candidatus Mancarchaeum acidiphilum, UniProt A0A218NN99, E391Q, form not given)", "T1 construct": "gene Mia14_0611", "T1 sequence (A0A218NN99 entry or part of it E391Q, form open)": "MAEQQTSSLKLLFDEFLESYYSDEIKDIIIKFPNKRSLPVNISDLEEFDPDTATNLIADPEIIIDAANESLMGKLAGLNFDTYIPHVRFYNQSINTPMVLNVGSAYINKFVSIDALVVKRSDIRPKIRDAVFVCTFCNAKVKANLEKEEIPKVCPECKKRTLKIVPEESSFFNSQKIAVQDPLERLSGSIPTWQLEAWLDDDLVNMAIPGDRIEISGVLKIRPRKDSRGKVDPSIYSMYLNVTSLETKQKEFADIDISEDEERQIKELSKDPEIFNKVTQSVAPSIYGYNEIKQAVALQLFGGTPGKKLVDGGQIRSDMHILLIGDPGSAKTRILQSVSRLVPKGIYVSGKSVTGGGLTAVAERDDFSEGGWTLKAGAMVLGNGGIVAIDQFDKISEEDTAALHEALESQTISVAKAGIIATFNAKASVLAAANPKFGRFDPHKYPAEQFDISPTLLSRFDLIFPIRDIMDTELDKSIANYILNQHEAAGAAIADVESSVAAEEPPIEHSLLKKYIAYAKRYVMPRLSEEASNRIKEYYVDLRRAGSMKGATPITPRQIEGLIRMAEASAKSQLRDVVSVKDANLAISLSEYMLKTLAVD", "assay": "analytical SEC: ATP-dependent hexamer formation with ssDNA", "format": "binding", "conditions": "1 mM ATP, 10 mM MgCl2, FAM-polyT50 ssDNA, pH 8.0; Walker B mutant, no ATP hydrolysis"}, "MacMCM": {"target": "T2, MacMCM (Candidatus Mancarchaeum acidiphilum, UniProt A0A218NN99, E391Q)", "T2 construct": "gene Mia14_0611; full length, codon-optimised gene, N-terminal His10 tag cut with TEV protease, from E. coli BL21(DE3) pLysS; monomer without ligands, homohexamer with ATP and DNA", "T2 sequence (A0A218NN99 entry or part of it E391Q)": "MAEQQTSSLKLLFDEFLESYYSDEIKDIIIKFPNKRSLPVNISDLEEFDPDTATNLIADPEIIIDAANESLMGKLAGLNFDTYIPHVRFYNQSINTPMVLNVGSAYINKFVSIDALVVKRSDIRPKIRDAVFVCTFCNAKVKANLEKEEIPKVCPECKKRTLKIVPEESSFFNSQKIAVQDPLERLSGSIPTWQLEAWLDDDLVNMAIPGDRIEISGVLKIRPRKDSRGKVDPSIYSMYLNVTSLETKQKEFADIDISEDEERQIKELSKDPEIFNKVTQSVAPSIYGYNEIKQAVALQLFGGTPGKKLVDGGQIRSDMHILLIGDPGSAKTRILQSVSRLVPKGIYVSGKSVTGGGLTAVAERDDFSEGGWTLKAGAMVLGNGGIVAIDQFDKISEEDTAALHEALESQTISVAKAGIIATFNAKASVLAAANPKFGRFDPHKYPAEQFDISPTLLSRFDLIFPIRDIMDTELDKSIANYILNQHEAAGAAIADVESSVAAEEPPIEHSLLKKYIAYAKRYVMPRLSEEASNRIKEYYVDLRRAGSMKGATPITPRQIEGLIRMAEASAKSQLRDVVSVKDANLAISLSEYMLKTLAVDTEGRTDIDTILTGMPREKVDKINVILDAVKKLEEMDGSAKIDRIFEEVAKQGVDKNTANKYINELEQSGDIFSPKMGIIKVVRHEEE", "assay": "analytical SEC: ATP-dependent hexamer formation with ssDNA", "format": "binding", "conditions": "1 mM ATP, 10 mM MgCl2, FAM-polyT50 ssDNA, pH 8.0; Walker B mutant, no ATP hydrolysis"}, "[6]": {"target": "MacMCM R543E (minus-SB mutant)", "assay": "analytical size-exclusion chromatography (SEC), self-association", "conditions": "Protein samples (10 μM); Superdex S200 Increase 10/300 GL; UV absorbance at 280 nm; parent: est. 13.1; read off a plot"}, "[7]": {"target": "SsoNPfuCMCM, chimeric MCM of the N-terminal domain of SsoMCM fused with the ATPase domain of PfuMCM (Sulfolobus solfataricus | not stated) (UniProt Q9UXG1)", "assay": "SEC-MALS; SEC-MALLS, Superose S6 Increase 10/300 GL, 200 mM KCl, 50 mM Tris-Cl pH 8.0, 5% glycerol, 0.5 mM DTT; 100 ul protein at 1 to 10 mg/ml; no ligands"}, "[8]": {"target": "MacMCM KRED (plus-SB mutant K476R–E537D)", "assay": "analytical size-exclusion chromatography (SEC), self-association", "conditions": "Protein samples (10 μM); Superdex S200 Increase 10/300 GL; UV absorbance at 280 nm; parent: est. 13.1; read off a plot"}, "[9]": {"target": "MacMCM DNEK (plus-SB mutant D59N–E61K)", "assay": "analytical size-exclusion chromatography (SEC), self-association", "conditions": "Protein samples (10 μM); Superdex S200 Increase 10/300 GL; UV absorbance at 280 nm; parent: est. 13.1; read off a plot"}, "[10]": {"target": "MacMCM NDSK (plus-SB mutant N484D–S532K)", "assay": "analytical size-exclusion chromatography (SEC), self-association", "conditions": "Protein samples (10 μM); Superdex S200 Increase 10/300 GL; UV absorbance at 280 nm; parent: est. 13.1; read off a plot"}, "[11]": {"system": "MacMCMΔWHD E391Q (Mancarchaeum acidophilum), PDB:8Q67_1", "assay": "fluorescence anisotropy", "conditions": "Anisotropy: 250 mM potassium glutamate, 20 mM Tris pH 8.0, 1 nM forked DNA, with 4 mM nucleotide and 10 mM MgCl2 where present; temperature not stated (EMSA …)"}, "[12]": {"system": "MacMCM E391Q (Mancarchaeum acidophilum)", "assay": "fluorescence anisotropy", "conditions": "Anisotropy: 250 mM potassium glutamate, 20 mM Tris pH 8.0, 1 nM forked DNA, with 4 mM nucleotide and 10 mM MgCl2 where present; temperature not stated (EMSA …)"}, "[13]": {"target": "MacMCM D366K (minus-SB mutant)", "assay": "analytical size-exclusion chromatography (SEC), self-association", "conditions": "Protein samples (10 μM); Superdex S200 Increase 10/300 GL; UV absorbance at 280 nm; parent: est. 13.1; read off a plot"}, "MacMCM^ΔWHD [14]": {"target": "T1, MacMCM^ΔWHD", "assay": "X-ray crystal structure, […] Å", "format": "binding", "conditions": "crystals grown with 10 mM ATP and 10 mM MgCl2; nucleotide modelled as ADP; ATPase site at subunit interface, five of six sites"}, "[15]": {"target": "MacMCM triple site minus-SB mutant (D311K, D366K, R543E)", "assay": "analytical size-exclusion chromatography (SEC), self-association", "conditions": "Protein samples (10 μM); Superdex S200 Increase 10/300 GL; UV absorbance at 280 nm; parent: est. 13.1; read off a plot"}, "[16]": {"target": "MacMCM, minichromosome maintenance protein from Mancarchaeum acidiphilum (Mancarchaeum acidiphilum)", "assay": "SEC; analytical SEC, Superose 6 Increase 10/300 GL, 200 mM NaCl, 20 mM Tris pH 8.0, 5% glycerol; protein 10 uM with equimolar fluorescein-polyT50 ssDNA; 1 mM ATP and 10 mM MgCl2 in the buffer"}, "[17]": {"target": "T3, MacMCM triple-site plus-SB mutant (D59N–E61K, K476R–E537D, N484D–S532K)", "T3 chain": "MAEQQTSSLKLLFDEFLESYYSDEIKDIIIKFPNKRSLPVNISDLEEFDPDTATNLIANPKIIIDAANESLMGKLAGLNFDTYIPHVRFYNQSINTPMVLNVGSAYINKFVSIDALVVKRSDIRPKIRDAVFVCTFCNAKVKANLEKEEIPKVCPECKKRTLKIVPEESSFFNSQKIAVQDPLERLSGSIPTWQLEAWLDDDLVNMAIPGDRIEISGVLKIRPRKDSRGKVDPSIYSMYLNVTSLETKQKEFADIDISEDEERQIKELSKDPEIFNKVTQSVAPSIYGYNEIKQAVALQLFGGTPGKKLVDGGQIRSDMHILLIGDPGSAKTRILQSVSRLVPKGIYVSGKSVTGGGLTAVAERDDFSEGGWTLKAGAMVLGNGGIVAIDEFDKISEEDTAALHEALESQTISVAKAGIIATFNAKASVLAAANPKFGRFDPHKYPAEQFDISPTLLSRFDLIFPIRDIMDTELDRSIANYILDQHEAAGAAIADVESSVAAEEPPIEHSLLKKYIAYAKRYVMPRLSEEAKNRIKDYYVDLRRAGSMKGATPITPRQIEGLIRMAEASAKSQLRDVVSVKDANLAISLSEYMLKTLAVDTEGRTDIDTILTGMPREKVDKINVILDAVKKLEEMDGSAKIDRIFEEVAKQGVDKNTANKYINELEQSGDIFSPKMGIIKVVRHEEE", "assay": "analytical size-exclusion chromatography (SEC), self-association", "conditions": "chain shown with the change; Protein samples (10 μM); Superdex S200 Increase 10/300 GL; UV absorbance at 280 nm; parent: est. 13.1; read off a plot"}}, "data": [{"molecule": "MacMCM, minichromosome maintenance protein from Mancarchaeum acidiphilum D311K", "values": [{"measurement": "other: SEC peak retention volume", "setting": "[1]", "result": 13.4, "unit": "mL"}]}, {"molecule": "MacMCM^E391Q, Walker B mutant of MacMCM (enzyme)", "values": [{"measurement": "stoichiometry N", "setting": "[2]", "result": 6}]}, {"molecule": "MacMCM^ΔWHD.E391Q, MacMCM lacking the C-terminal winged-helix domain with the Walker B mutation E391Q (domain or fragment)", "values": [{"measurement": "stoichiometry N", "setting": "[3]", "result": 6}, {"measurement": "stoichiometry N", "setting": "[4]", "result": 6}]}, {"molecule": "Nc1ncnc2c1ncn2[C@@H]1O[C@H](COP(=O)(O)OP(=O)(O)OP(=O)(O)O)[C@@H](O)[C@H]1O", "note": "[ATP]", "values": [{"measurement": "analytical SEC: ATP-dependent hexamer formation with ssDNA", "setting": "MacMCM^ΔWHD [5]", "result": "both MacMCM^E391Q and MacMCM^ΔWHD.E391Q coeluted with ssDNA at elution volumes consistent with a homohexamer"}, {"measurement": "analytical SEC: ATP-dependent hexamer formation with ssDNA", "setting": "MacMCM", "result": "both MacMCM^E391Q and MacMCM^ΔWHD.E391Q coeluted with ssDNA at elution volumes consistent with a homohexamer"}]}, {"molecule": "MacMCM, minichromosome maintenance protein from Mancarchaeum acidiphilum R543E", "values": [{"measurement": "other: SEC peak retention volume", "setting": "[6]", "result": 13.3, "unit": "mL"}]}, {"molecule": "SsoNPfuCMCM, chimeric MCM of the N-terminal domain of SsoMCM fused with the ATPase domain of PfuMCM (from UniProt Q9UXG1 2-321) (enzyme)", "values": [{"measurement": "stoichiometry N", "setting": "[7]", "result": 6}]}, {"molecule": "MacMCM, minichromosome maintenance protein from Mancarchaeum acidiphilum K476R; E537D", "values": [{"measurement": "other: SEC peak retention volume", "setting": "[8]", "result": 13.3, "unit": "mL"}]}, {"molecule": "MacMCM, minichromosome maintenance protein from Mancarchaeum acidiphilum D59N; E61K", "values": [{"measurement": "other: SEC peak retention volume", "setting": "[9]", "result": 12.9, "unit": "mL"}]}, {"molecule": "MacMCM, minichromosome maintenance protein from Mancarchaeum acidiphilum N484D; S532K", "values": [{"measurement": "other: SEC peak retention volume", "setting": "[10]", "result": 13, "unit": "mL"}]}, {"molecule": "GGGACGCGTCGGCCTGGCACGTCGGCCGCTGCGGCCAGGCACCCGATGGCGTTTGTTTGTTTGTTTGTTTGTTT / TTTGTTTGTTTGTTTGTTTGTTTGTTTGTTTGCCGACGTGCCAGGCCGACGCGTCCC [forked DNA]", "values": [{"measurement": "Kd", "setting": "[11]", "result": 114, "unit": "nM"}, {"measurement": "Kd", "setting": "[12]", "result": 780, "unit": "nM"}]}, {"molecule": "MacMCM, minichromosome maintenance protein from Mancarchaeum acidiphilum D366K", "values": [{"measurement": "other: SEC peak retention volume", "setting": "[13]", "result": 13.4, "unit": "mL"}]}, {"molecule": "Nc1ncnc2c1ncn2[C@@H]1O[C@H](COP(=O)(O)OP(=O)(O)O)[C@@H](O)[C@H]1O", "note": "[ADP]", "values": [{"measurement": "X-ray crystal structure, 2.6 Å", "setting": "MacMCM^ΔWHD [14]", "result": "ADP was identified in five of the six ATPase active sites"}]}, {"molecule": "MacMCM, minichromosome maintenance protein from Mancarchaeum acidiphilum D311K; D366K; R543E", "values": [{"measurement": "other: SEC peak retention volume", "setting": "[15]", "result": 13.3, "unit": "mL"}]}, {"molecule": "MacMCM, minichromosome maintenance protein from Mancarchaeum acidiphilum (enzyme)", "values": [{"measurement": "stoichiometry N", "setting": "[16]", "result": 6}]}, {"molecule": "MacMCM, minichromosome maintenance protein from Mancarchaeum acidiphilum D59N; E61K; K476R; E537D; N484D; S532K (protein) MAEQQTSSLKLLFDEFLESYYSDEIKDIIIKFPNKRSLPVNISDLEEFDPDTATNLIANPKIIIDAANESLMGKLAGLNFDTYIPHVRFYNQSINTPMVLNVGSAYINKFVSIDALVVKRSDIRPKIRDAVFVCTFCNAKVKANLEKEEIPKVCPECKKRTLKIVPEESSFFNSQKIAVQDPLERLSGSIPTWQLEAWLDDDLVNMAIPGDRIEISGVLKIRPRKDSRGKVDPSIYSMYLNVTSLETKQKEFADIDISEDEERQIKELSKDPEIFNKVTQSVAPSIYGYNEIKQAVALQLFGGTPGKKLVDGGQIRSDMHILLIGDPGSAKTRILQSVSRLVPKGIYVSGKSVTGGGLTAVAERDDFSEGGWTLKAGAMVLGNGGIVAIDEFDKISEEDTAALHEALESQTISVAKAGIIATFNAKASVLAAANPKFGRFDPHKYPAEQFDISPTLLSRFDLIFPIRDIMDTELDRSIANYILDQHEAAGAAIADVESSVAAEEPPIEHSLLKKYIAYAKRYVMPRLSEEAKNRIKDYYVDLRRAGSMKGATPITPRQIEGLIRMAEASAKSQLRDVVSVKDANLAISLSEYMLKTLAVDTEGRTDIDTILTGMPREKVDKINVILDAVKKLEEMDGSAKIDRIFEEVAKQGVDKNTANKYINELEQSGDIFSPKMGIIKVVRHEEE", "values": [{"measurement": "other: SEC peak retention volume", "setting": "[17]", "result": 11.6, "unit": "mL"}]}]}
